# Molecular target: UBR5 (UniProt O95071)
# Test: co-immunoprecipitation, immunoblot
# Details: reference: wild type SIRT7; sites T255,S259
substance,measurement,value
SIRT7 (from UniProt Q9NRC8) SIRT7-2A (T255A/S259A),binding against the reference,stronger
